Data published in patent US20220213216A1 (SOUND BIOPHARMACEUTICALS, published 2022).

How the values were obtained:
[1] = biological target: T1, human Her2 with an Fc tag (AcroBiosystem, catalog number HE2-H5253) (human, UniProt P04626 23-652); assay: BLI (OctetQKe); Fc-tagged human Her2 loaded on Protein A biosensors, antibody in two-fold dilutions, 1:1 fit
T1 construct: extracellular domain; Bought protein, loaded on Protein A biosensors; also called Her2 antigen; extracellular region of the Her2 protein; not shown: Fc tag of the bought protein, not described
Protocol: (§1) Affinity assay: The OctetQKe instrument (Pall Life Sciences) was used to determine the affinity of the anti-Her2 antibody to the extracellular region of the Her2 protein. Briefly, human Her2 with an Fc tag in PBST (AcroBiosystem, catalog number HE2-H5253) was loaded onto the surface of ProteinA Capture Biosensors (ProA). Immobilization level was set at […]. Then a 60-second biosensor baseline step was performed, and the antigen/antibody association was analyzed for 180 seconds on the biosensor to test the antibody/antigen. The test molecules were then applied at a two-fold concentration gradient. The data analysis software version 8.2 (PALL/ForteBio) was used to evaluate the Octet data, and the full-fit 1:1 modal was used to determine the Kd value.

[2] = biological target: T1, human Her2 with an Fc tag …; assay: BLI (OctetQKe); Fc-tagged human Her2 loaded on Protein A biosensors, antibody in two-fold dilutions, 1:1 fit; column head Kdis
Protocol: as §1

[3] = biological target: T1, human Her2 with an Fc tag …; assay: BLI (Octet QKe), Her2-Fc on Protein A biosensors, 1:1 fit; single-site bivalent Bi-Bs
Protocol: as §1
(§2) In order to detect the binding ability of the antibodies to Her2 antigen, biofilm interference technology (BLI) was used to analyze the interaction between the antibodies and Her2 antigen.

[4] = biological target: T1, human Her2 with an Fc tag …; assay: BLI (Octet QKe), Her2-Fc on Protein A biosensors, 1:1 fit; Bp-Bs with dual Her2 binding sites
Protocol: as §1, §2

[5] = biological target: T1, human Her2 with an Fc tag …; assay: BLI (Octet QKe), Her2-Fc on Protein A biosensors, 1:1 fit
Protocol: as §1, §2

| kon [1] [M⁻¹ s⁻¹] | koff [2] [s⁻¹] | Kd [3] [nM] | Kd [4] [nM] | Kd [5] [nM] | Binder |
| --- | --- | --- | --- | --- | --- |
| 163000 | 0.000497 | 3.06 | – | – | bivalent anti-Her2 bispecific antibody Bi-Bs (anti-CD3 UCHT1 Fab with anti-Her2 VHH1 on both CL and CH1) (bispecific antibody, 3 is VL-CL-VHH1, so the heavy and light labels are probably swapped in this sentence; Expressed in E. coli and purified on Ni Sepharose) chain 1: EIVLTQSPATLSLSPGERATLSCSASSGVNYMHWYQQKPGQAPRRWIYDTSKLASGVPARFSGSGSGTSYSLTISSLEPEDFAVYYCHQRGGSYTFGGGTKLEIKRKLTVAAPSVFIFPPSDEQLKSGTASVVCLLNNFYPREAKVQWKVDNALQSGNSQESVTEQDSKDSTYSLSSTLTLSKADYEKHKVYACEVTHQGLSSPVTKSFNRGECGSQVQLVQSGGGLVQAGGSLRLSCAASGRTFSSYAMAWFRQAPGKEREFVAAISWSGANIYVADSVKGRFTISRDNAKDTVYLQMNSLKPEDTAVYYCAVKLGFAPVEERQYDYWGQGTQVTVSS chain 2: QVQLVQSGAEVKKPGASVKVSCKTSGYTFTSNWMHWVRQAPGQGLEWMGEIDPSDSYTNYNQKFKGRVTITVDKSASTAYMELSSLRSEDTAVYYCARGSNPYYYAMDYWGQGTLVTVSSKLASTKGPSVFPLAPSSKSTSGGTAALGCLVKDYFPEPVTVSWNSGALTSGVHTFPAVLQSSGLYSLSSVVTVPSSSLGTQTYICNVNHKPSNTKVDKKVGSGGGGSGGGGSGGGGSQVQLVQSGGGLVQAGGSLRLSCAASGRTFSSYAMAWFRQAPGKEREFVAAISWSGANIYVADSVKGRFTISRDNAKDTVYLQMNSLKPEDTAVYYCAVKLGFAPVEERQYDYWGQGTQVTVSS |
| 215000 | 2.33e-05 | – | 0.109 | – | bispecific antibody Bp-Bs with dual Her2 binding sites (anti-CD3 UCHT1 Fab with anti-Her2 VHH1 on CL and anti-Her2 VHH2 on CH1) (bispecific antibody, VHHs are linked by (GGGGS)3; Expressed in E. coli and purified on Ni Sepharose; About 79 kDa) light: EIVLTQSPATLSLSPGERATLSCSASSGVNYMHWYQQKPGQAPRRWIYDTSKLASGVPARFSGSGSGTSYSLTISSLEPEDFAVYYCHQRGGSYTFGGGTKLEIKRKLTVAAPSVFIFPPSDEQLKSGTASVVCLLNNFYPREAKVQWKVDNALQSGNSQESVTEQDSKDSTYSLSSTLTLSKADYEKHKVYACEVTHQGLSSPVTKSFNRGECGSQVQLVQSGGGLVQAGGSLRLSCAASGRTFSSYAMAWFRQAPGKEREFVAAISWSGANIYVADSVKGRFTISRDNAKDTVYLQMNSLKPEDTAVYYCAVKLGFAPVEERQYDYWGQGTQVTVSS heavy: QVQLVQSGAEVKKPGASVKVSCKTSGYTFTSNWMHWVRQAPGQGLEWMGEIDPSDSYTNYNQKFKGRVTITVDKSASTAYMELSSLRSEDTAVYYCARGSNPYYYAMDYWGQGTLVTVSSASTKGPSVFPLAPSSKSTSGGTAALGCLVKDYFPEPVTVSWNSGALTSGVHTFPAVLQSSGLYSLSSVVTVPSSSLGTQTYICNVNHKPSNTKVDKKVEPKSCDKTHTCAAGGGGSGGGGSGGGGSQVQLQESGGGSVQAGGSLRLSCRASGFTFSSYAMSWVRQPPGKELEWVSAIWGGGDSQHYADSVKGRFTISRDNAKNTLYLQLNSLKTEDTGMYYCVKDRGPFFSGSKYVLGAADRGQGTQVTVSS |
| 29800 | 8.99e-05 | – | – | 3.02 | anti-Her2-VHH2-Fc (Fc fusion, Called a single-site bivalent antibody; 2; not shown: Fc and any linker are not described) QVQLQESGGGSVQAGGSLRLSCRASGFTFSSYAMSWVRQPPGKELEWVSAIWGGGDSQHYADSVKGRFTISRDNAKNTLYLQLNSLKTEDTGMYYCVKDRGPFFSGSKYVLGAADRGQGTQVTVSS |
| 298000 | 0.00263 | – | – | 8.85 | anti-Her2-VHH1-Fc (Fc fusion, Called a single-site bivalent antibody; 1; also called single-site bivalent antibody anti-Her2 VHH1-Fc; not shown: Fc and any linker are not described) QVQLVQSGGGLVQAGGSLRLSCAASGRTFSSYAMAWFRQAPGKEREFVAAISWSGANIYVADSVKGRFTISRDNAKDTVYLQMNSLKPEDTAVYYCAVKLGFAPVEERQYDYWGQGTQVTVSS |
